The record followed here is the DeepSol protein solubility set.

The nature of the data set: soluble on expression in E. coli; label from the status in PepcDB or PDB records.
Turning to “TKDFSWDTTLSFTWSKEKINSLPTGDLIKENLFEGQPIHALYDYKYAGIWGSNVPQETLDAYGVKPGWVKIETLDKDGDGGVHKYGEDDRQILGHTNPDVILGLNNTLTYKNFDLSIFAMARYGQTIKSSLIGWYRASSNYSINQPAGVDYWTENNQGAYYPVPGSGDEQKVMSALTYRDGSFIKVKNITLGYTLPQSVSRKVLMEKCRFYATAYNPFLYVKDKELRGTDPETNGSDAFPLYKQFVFGINVTF”, the “soluble on expression in E. coli” value is “not soluble”.
As for “TKTEALTAEEAAKQYTNSLVEKALKAEKVYATYTQEQVDKIVAAMALAGSEASLQLAKEAHDETGRGVVEDKDTKNHFATEYVYERIKNEKTVGIIGEDKVAGSIEIAAPLGVLAGIVPTTNPTSTTMFKILVALKTRNAIVFAFHPAAQKCSAHAAQILYDAAVKAGAPENIVQWIETPSIANTGALISNKGIASILATGGPGMVNAALKSGNPSMGVGAGNGAVYVDATANLERAVEDLLLSKRFDNGMICATE”, the “soluble on expression in E. coli” value is recorded as “not soluble”.
The value for “TLAAKAAEIHPTSLDTRLDVAAAPAELQQVAQSFNAMLERLDDGYQRLQQFSADLAHEIRTPIGSLMGHGQVALRQPRSNEEYQALIASNQEELERIARMVESILFLARADDVRAAVERSRLDLGEELRRQAEYFEGLAEERGLSLDVQVSGQLRADPQLFRRALSNLLANAIRYASADSLIEVRGLRRSGEFLLSVENACDRLPAEPLSRLFDRFYRGDAARSDAQSSGLGLAIVQAIMRLHGGRAEASAPAPGRIRFDLAFPAQD” was “not soluble”.
As for “TPDFGFTLRGNFTYSKNKVQNWEQAYLEYPYLEYNNFPYNSIRGYQAVGLFKDEDDIKYSPKQTFGEVMPGDIKYKDINGDGMVDKLDMVPLTHSTYPLLMYGLGAEIRYKNLTLGVLFKGTGKTSFFYVGQKTTVNDETRLNGMGYMPFFEGNTGNVLTLAANPVNRWIPRDYAIAHGIDPSLAENPNARFPRLQYGNNSNNSQLSTFWQGDSRYIRLQEITLNYHLATAFLRRIGVSSLDIQFVGNNLYVWDKVKLFDPEQARWNGRVYPIPSTYSLQLYVNL”, the “soluble on expression in E. coli” value is on record as “not soluble”.
The value for “TPTVDHVLLNIALNLSSNRSHEQQYQNLIDGVAQVFPCDASCLFIFDEDGFLTPVAVKGLSSSVLGRRYFPKAHPRLDAIIHSREPVRFDADCSLPDPFDGTLLTEDQCIDVHDCMGFSLYVEGQLVGALTMDALTVGAFDDIDPVAIETFAALTAATLRNIAQLKALKAQNQKQKSVTQTLIQQARSQHG” was “not soluble”; that for “TQYWDFCFREPDVAATDQEYREELDRLFVQAVKRQLVTDVELGSYLSGGMDSGSIAAVAAAEHPYIKTFTCGFDLNSASGIELGFDERSKAEYMSYCFKTEHYEMVLKAGDMERILPHVACHLEEPRVGQSYPNFFAAKLASRFVKVVLSGAGGDELFAGYPWRYYRAVVNDDFEHYVDKYYNFWQRLLPNSELKRVFAPIAGEVEHVWTRDIFRNVFRHHADQLYRPEDYINHSLYFEAKTFLHGLLVVEDKLSMAHGLETRVPFLDNDLVEFAMRCPIRLKLNNLAEVVKINENETGNKVRKFFEKNRDGKTILREVMNHRLPADISKAEKQGFSAPDASWFKGESLEFVRRKLLDGHSPLYEIMDAATVRELVNEHLGGIRNRRLLIWSLLSVDAWMRQT” was “not soluble”.
On to “TRMAPVIMVPGSSASQNRFDSLITELGKETPKKHSVLKLTVQTDGTIKYSGSIAANDNEPFIVIGFANNRDGKANIDKQAVWLNTAFKALVKTYHFNHFYALGHSNGGLIWTLFLERYLKESPKVHIDRLMTIASPYNMESTSTTAKTSMFKELYRYRTGLPESLTVYSIAGTENYTSDGTVPYNSVNYGKYIFQDQVKHFTEITVTGANTAHSDLPQNKQIVSLIRQYLLAETMPDK”, for which the “soluble on expression in E. coli” value is given as “not soluble”.
The value for “TRVYDESGKEVGKLFGQKGTFVELDNISPYIQDAVISTEDRGFYQHKGYSIKGIARAVVGKLTFGKIGGGGGGSTITQQLAKNAYLTQEQTLDRKARELFLAIEIEKKYSKKDILAMYLNNSYFGNGVWGVQDAARKYFGVDASQVTVGEAATLAGMLKGPGIYNPIDYI” was “not soluble”; that for “TSKQRYSGKVHLCVARYSYNPFDGPNENPEAELPLTAGKYLYVYGDMDEDGFYEGELLDGQRGLVPSNFVDFVQDNESRLAST” was “soluble”.
The result for “TSSLHPTRGKLLKRFAQIGPYIREQQCQESQFFFDCLAVCVNKKVTPEKREFWGWWMELERNGEQLIYYYQVGLFDKNGDWVNQVISKKDVIESIHETLIRFHDFLQAAVSELEMTLVPDEKMSNFPLPL” reads “soluble”.
The result for “TTCCPSIVARSNFNVCRLPGTPEALCATYTGCIIIPGATCPGDYAN” reads “soluble”; that for “TTKKRVFHFGKGKSEGNKTMKELLGGKGANLAEMASIGLSVPPGFTVSTEACQQYQDAGCALPAGLWAEIVDGLQWVEEYMGATLGDPQRPLLLSVRSGAAVSMPGMMDTVLNLGLNDEVAAGLAAKSGERFAYDSFRRFLDMFGNVVMDIPRSLFEEKLEHMKESKGLKNDTDLTASDLKELVGQYKEVYLSAKGEPFPSDPKKQLELAVLAVFNSWESPRAKKYRSINQITGLRGTAVNVQCMVFGNMGNTSGTGVLFTRNPNTGEKKLYGEFLVNAQGEDVVAGIRTPEDLDAMKNLMPQAYDELVENCNILESHYKEMQDIEFTVQENRLWMLQCRTGKRTGKSAVKIAVDMVNEGLVEPRSAIKMVEPGHLDQLLHPQFENPSAYKDQVIATGLPASPGAAVGQVVFTAEDAEAWHSQGKAAILVRAETSPEDVGGMHAAVGILTERGGMTSHAAVVARGWGKCCVSGCSGIRVNDAEKLVTIGGHVLREGEWLSLNGSTGEVILGKQPLSPPALSGDLGTFMAWVDDVRKLKVLANADTPDDALTARNNGAQGIGLCRTEHMFFASDERIKAVRQMIMAPTLELRQQALDRLLPYQRSDFEGIFRAMDGLPVTIRLLDPPLHEFLPEGNIEDIVSELCAETGANQEDALARIEKLSEVNPMLGFRGCRLGISYPELTEMQARAIFEAAIAMTNQGVQVFPEIMVPLVGTPQELGHQVTLIRQVAEKVFANVGKTIGYKVGTMIEIPRAALVADEIAEQAEFFSFGTNDLTQMTFGYSRDDVGKFIPVYLAQGILQHDPFEVLDQRGVGELVKFATERGRKARPNLKVGICGEHGGEPSSVAFFAKAGLDYVSCSPFRVPIARLAAAQVLV”, “soluble”.
For the sequence “TVSVLLPFVATEFYRRLVEGIEGVLLEQRYDLALFPILSLARLKRYLENTTLAYLTDGLILASYDLTERFEEGRLPTERPVVLVDAQNPRYDSVYLDNRLGGRLAGAYLARFPGPIFAIAVEEEPDRAFRRTVFAERMAGFQEALKEAGRPFSPDRLYITRHSQEGGRLALRHFLEKASPPLNVFAGADQVALGVLEEAVRLGLTPGRDVRVLGFDGHPFAEEAGLSTIAQPVEAMGARAAQLLLERMRGYQGPPREVRFEPVLVERASTGTPPAA”, the “soluble on expression in E. coli” value is reported as “soluble”.
“VDLNALADLPLTYPEVGATATGRLPAGYNHLDVSTQIGTGRQRFEQAADAVMHWGMQRNAGLRVRASSETAVVSAVVLVGIAFLRAPCRVVYVIDEPDVRGFGYGTLPGHPVSGEERFAVRCDPMTSVVFAEVLSFSRPATWASKAAGPLGAVTQRFIAQRYLRAV”: the “soluble on expression in E. coli” value is recorded as “not soluble”.
The result for “VDMSNVVKTYDLQDGSKVHVFKDGKMGMENKFGKSMNMPEGKVMETRDGTKIIMKGNEIFRLDEALRKGHSEGG” reads “soluble”; that for “VEGAVKTEPVDLFHPGFLNSSNYRIPALFKTKEGTLIASIDARRHGGADAPNNDIDTAVRRSEDGGKTWDEGQIIMDYPDKSSVIDTTLIQDDETGRIFLLVTHFPSKYGFWNAGLGSGFKNIDGKEYLCLYDSSGKEFTVRENVVYDKDSNKTEYTTNALGDLFKNGTKIDNINSSTAPLKAKGTSYINLVYSDDDGKTWSEPQNINFQVKKDWMKFLGIAPGRGIQIKNGEHKGRIVVPVYYTNEKGKQSSAVIYSDDSGKNWTIGESPNDNRKLENGKIINSKTLSDDAPQLTECQVVEMPNGQLKLFMRNLSGYLNIATSFDGGATWDETVEKDTNVLEPYCQLSVINYSQKVDGKDAVIFSNPNARSRSNGTVRIGLINQVGTYENGEPKYEFDWKYNKLVKPGYYAYSCLTELSNGNIGLLYEGTPSEEMSYIEMNLKYLESGANK”, “soluble”.
The value for “VEREVLMNGTQAVAHAAMYADVDVVAAYPIRPYTEVMDTISKLIADGELDAEFIVAEGEHGQFETVKHASLAGARTLVGSSGVGWLYAMEAIVVTATDRAPVVAIIGNRALDDPGAYGVEHNDALMVRDVGWLLVWVDTAQEAFDTALLAYRIAEDQRVLLPLGISMDGGFLTHSEQIVRLPPRELVKNFLPPYNRGKYLVHPDNPITVAPQVNEDWVMEIRRQHEEAMERARSVIVEAYEEFKKVFGRYPGSTSDLQMPE” was “not soluble”; that for “VGRATQSAKELDVKIKNVIRNVHILLKQISGTDGEGNNVPSGDFSREWAEAQRMMRELRNRNFGKHLREAEADKRESQLLLNRIRTWQKTHQGENNGLANSIRDSLNEYEAKLSDLRARLQEAAAQAKQANGLNQENERALGAIQRQVKEINSLQSDFTKYLTTADSSLLQTNIALQLMEKSQKEYEKLAASLNEARQELSDKVRELSRSAGKTSLVEEAEKHARSLQELAKQLEEIKRNASGDELVRCAVDAATAYENILNAIKAAEDAANRAASASESALQTVIKEDLPRKAKTLSSNSDKLLNEAKMTQKKLKQEVSPALNNLQQTLNIVTVQKEVIDTNLTTLRDGLHGIQRGDIDAMISSAKSMVRKANDITDEVLDGLNPIQTDVERIKDTYGRTQNEDFKKALTDADNSVNKLTNKLPDLWRKIESINQQLLPLGNISDNMDRIRELIQQARDAASKVAVPMRFNGKSGVEVRLPNDLEDLKGYTSLSLFLQRPNSRENGGTENMFVMYLGNKDASRDYIGMAVVDGQLTCVYNLGDREAELQVDQILTKSETKEAVMDRVKFQRIYQFARLNYTKGATSSKPETPGVYDMDGRNSNTLLNLDPENVVFYVGGYPPDFKLPSRLSFPPYKGCIELDDLNENVLSLYNFKKTFNLNTTEVEPCRRRKEESDKNYFEGTGYARVPTQPHAPIPTFGQTIQTTVDRGLLFFAENGDRFISLNIEDGKLMVRYKLNSELPKERGVGDAINNGRDHSIQIKIGKLQKRMWINVDVQNTIIDGEVFDFSTYYLGGIPIAIRERFNISTPAFRGCMKNLKKTSGVVRLNDTVGVTKKCSEDWKLVRSASFSRGGQLSFTDLGLPPTDHLQASFGFQTFQPSGILLDHQTWTRNLQVTLEDGYIELSTSDSGGPIFKSPQTYMDGLLHYVSVISDNSGLRLLIDDQLLRNSKRLKHISSSRQSLRLGGSNFEGCISNVFVQRLSLSPEVLDLTSNSLKRDVSLGGCSLNKPPFLMLLKGSTRFNKTKTFRINQLLQDTPVASPRSVKVWQDACSPLPKTQANHGALQFGDIPTSHLLFKLPQELLKPRSQFAVDMQTTSSRGLVFHTGTKNSFMALYLSKGRLVFALGTDGKKLRIKSKEKCNDGKWHTVVFGHDGEKGRLVVDGLRAREGSLPGNSTISIRAPVYLGSPPSGKPKSLPTNSFVGCLKNFQLDSKPLYTPSSSFGVSSCLGGPLEKGIYFSEEGGHVVLAHSVLLGPEFKLVFSIRPRSLTGILIHIGSQPGKHLCVYLEAGKVTASMDSGAGGTSTSVTPKQSLCDGQWHSVAVTIKQHILHLELDTDSSYTAGQIPFPPASTQEPLHLGGAPANLTTLRIPVWKSFFGCLRNIHVNHIPVPVTEALEVQGPVSLNGCPDQ” was “soluble”; that for “VGVAVDRDELLGANAPPQGGSFRFYLDGERWEWSDSVARMHGYQPGEVIPTNEILLSHKHPDDQSQVAALFDKMIHAGEPFSSKHRIIDTDRRIHHVIVVGDRMLDENGQVIGTSGYYIDVTETLETDLREFNEALTEAVAGLEKSRAVIEQAKGALMLVYGISSERAFGILTWRSQETNIKLHTLAERFVGALAAEATLPASFRARFDHLLLTAHEYPDEQADHPA” was “not soluble”.
